Results as given in publication PMC10997057.

Target: murine splenic AA amyloid extract (mouse (endogenous in spleen)) (UniProt P05367)
Experiment: co-sedimentation; pulldown with murine splenic AA amyloid extract in the presence of 20 μg non-radiolabeled peptide (competition)

Chain of murine splenic AA amyloid extract (mouse (endogenous in spleen)) (P05367 20-122): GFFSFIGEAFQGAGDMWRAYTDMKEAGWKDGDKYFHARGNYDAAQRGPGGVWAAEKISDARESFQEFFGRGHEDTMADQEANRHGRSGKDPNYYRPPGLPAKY

% of ^99mTc-p5+14 bound in the presence of 20 μg non-radiolabeled peptide: 4%
Binder: GGGYSKAQKAQAKQAKQAQKAQKAQAKQAKQAQKAQKAQAKQAKQ [non-radiolabeled peptide p5+14]
